Values quoted from earlier work in US11749377B2, “Method and electronic system for predicting at least one fitness value of a protein, related computer program product” (PEACCEL, priority 2015, dated 2023).

Assays:
rat GLP-1 receptor = target: T1, rat GLP-1 receptor (Rattus norvegicus, UniProt P32301); conditions: Log(IC50), binding affinity to rat GLP-1 receptor
T1 sequence (P32301 22-463): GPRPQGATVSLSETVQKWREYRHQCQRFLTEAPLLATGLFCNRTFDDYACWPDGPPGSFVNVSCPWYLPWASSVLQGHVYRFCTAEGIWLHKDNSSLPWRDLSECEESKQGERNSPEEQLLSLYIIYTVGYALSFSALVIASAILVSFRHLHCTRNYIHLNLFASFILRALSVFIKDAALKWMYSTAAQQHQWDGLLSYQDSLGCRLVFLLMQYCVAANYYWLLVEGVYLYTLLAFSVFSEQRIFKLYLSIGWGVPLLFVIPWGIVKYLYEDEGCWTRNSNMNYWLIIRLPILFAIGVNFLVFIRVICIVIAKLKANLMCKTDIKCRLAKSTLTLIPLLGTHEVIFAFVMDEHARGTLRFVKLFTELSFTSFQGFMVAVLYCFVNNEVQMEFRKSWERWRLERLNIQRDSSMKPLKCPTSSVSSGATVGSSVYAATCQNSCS

GLP-1 receptor = target: T2, GLP-1 receptor (Rattus norvegicus, UniProt P32301); conditions: Log(EC50), adenylate cyclase activity
T2 sequence (P32301 22-463): T1 sequence (P32301 22-463)

Question: Which results are given for “GLP1 S8A: single mutant analog of human GLP1”?
Answer: logIC50 (rat GLP-1 receptor): −0.1192; logEC50 (GLP-1 receptor): 0.699

Question: Which results are given for “GLP1 F22A: single mutant analog of human GLP1”?
Answer: logIC50 (rat GLP-1 receptor): 2.545; logEC50 (GLP-1 receptor): 3.415

Question: Which logIC50 (rat GLP-1 receptor) does the source give for “GLP1 T5A: single mutant analog of human GLP1” here?
Answer: 0.5441

Question: What about the logEC50 (GLP-1 receptor) of the same substance?
Answer: 0.699

Question: For “GLP1 T7A: single mutant analog of human GLP1”, which logIC50 (rat GLP-1 receptor) is on record?
Answer: 1.5563

Question: And the logEC50 (GLP-1 receptor)?
Answer: 1.813

Question: Which logIC50 (rat GLP-1 receptor) does the source give for “GLP1 G29A: single mutant analog of human GLP1” here?
Answer: 0.1139

Question: What about the logEC50 (GLP-1 receptor) of the same substance?
Answer: 0

Question: With “GLP1 R30A: single mutant analog of human GLP1” as the substance, how does the logIC50 (rat GLP-1 receptor) read?
Answer: 0.6628

Question: What about the logEC50 (GLP-1 receptor) of the same substance?
Answer: 0.8451

Question: Which results are given for “GLP1 I23A: single mutant analog of human GLP1”?
Answer: logIC50 (rat GLP-1 receptor): 1.398; logEC50 (GLP-1 receptor): 1.8451

Question: Which logIC50 (rat GLP-1 receptor) does the source give for “GLP1 V27A: single mutant analog of human GLP1” here?
Answer: 0.1461

Question: And the logEC50 (GLP-1 receptor)?
Answer: 0.301

Question: For “GLP1 L14A: single mutant analog of human GLP1”, which logIC50 (rat GLP-1 receptor) is on record?
Answer: 0.2304

Question: And the logEC50 (GLP-1 receptor)?
Answer: 0.8451

Question: Which results are given for “GLP1 S11A: single mutant analog of human GLP1”?
Answer: logIC50 (rat GLP-1 receptor): −0.3372; logEC50 (GLP-1 receptor): 0.4771

Question: Which logIC50 (rat GLP-1 receptor) does the source give for “GLP1 Q17A: single mutant analog of human GLP1” here?
Answer: 0.04139

Question: What about the logEC50 (GLP-1 receptor) of the same substance?
Answer: 0.699

Question: Which results are given for “GLP1 L26A: single mutant analog of human GLP1”?
Answer: logIC50 (rat GLP-1 receptor): 0.6721; logEC50 (GLP-1 receptor): 0.6021

Question: For “GLP1 V10A: single mutant analog of human GLP1”, which logIC50 (rat GLP-1 receptor) is on record?
Answer: 0.2304

Question: What about the logEC50 (GLP-1 receptor) of the same substance?
Answer: 0.8451

Question: With “GLP1 D9A: single mutant analog of human GLP1” as the substance, how does the logIC50 (rat GLP-1 receptor) read?
Answer: 1.041

Question: Which logIC50 (rat GLP-1 receptor) does the source give for “GLP1 W25A: single mutant analog of human GLP1” here?
Answer: 0.2041

Question: What about the logEC50 (GLP-1 receptor) of the same substance?
Answer: 1.176

Question: With “GLP1 F6A: single mutant analog of human GLP1” as the substance, how does the logIC50 (rat GLP-1 receptor) read?
Answer: 1.5563

Question: What about the logEC50 (GLP-1 receptor) of the same substance?
Answer: 1.519

Question: With “GLP1 K28A: single mutant analog of human GLP1” as the substance, how does the logIC50 (rat GLP-1 receptor) read?
Answer: 0.2304

Question: What about the logEC50 (GLP-1 receptor) of the same substance?
Answer: 0.301

Question: For “GLP1 G16A: single mutant analog of human GLP1”, which logIC50 (rat GLP-1 receptor) is on record?
Answer: −0.2441

Question: What about the logEC50 (GLP-1 receptor) of the same substance?
Answer: 0.6021

Question: Which results are given for “GLP1 K20A: single mutant analog of human GLP1”?
Answer: logIC50 (rat GLP-1 receptor): 0.1461; logEC50 (GLP-1 receptor): 1.114

Question: Which logIC50 (rat GLP-1 receptor) does the source give for “GLP1 E15A: single mutant analog of human GLP1” here?
Answer: 0.6128

Question: What about the logEC50 (GLP-1 receptor) of the same substance?
Answer: 1.813

Question: For “GLP1 Y13A: single mutant analog of human GLP1”, which logIC50 (rat GLP-1 receptor) is on record?
Answer: 0.5441

Question: And the logEC50 (GLP-1 receptor)?
Answer: 1.74

Question: Which logIC50 (rat GLP-1 receptor) does the source give for “GLP1 E3A: single mutant analog of human GLP1” here?
Answer: 0.9085

Question: What about the logEC50 (GLP-1 receptor) of the same substance?
Answer: 0.301

Question: For “GLP1 A2S: single mutant analog of human GLP1”, which logIC50 (rat GLP-1 receptor) is on record?
Answer: 0.3802

Question: What about the logEC50 (GLP-1 receptor) of the same substance?
Answer: 0.301

Question: Which logIC50 (rat GLP-1 receptor) does the source give for “GLP1 G4A: single mutant analog of human GLP1” here?
Answer: 1.771

Question: Which results are given for “GLP1 A18R: single mutant analog of human GLP1”?
Answer: logIC50 (rat GLP-1 receptor): −0.05061; logEC50 (GLP-1 receptor): 1.23

Question: Which results are given for “GLP1 S12A: single mutant analog of human GLP1”?
Answer: logIC50 (rat GLP-1 receptor): −0.1675; logEC50 (GLP-1 receptor): 0.301
